For orientation: Kd means a measure of binding affinity in units of concentration.

The results in this text go back to article PMC9841416, “The recognition of structured elements by a conserved groove distant from domains associated with catalysis is an essential determinant of RNase E”.

The data set deals with NTH-RNase E D346N (Escherichia coli (K12, P21513-1 in …, UniProt P21513 1-529, D346N)). In words: EMSA; 15 mM CaCl2; 25 mM bis-Tris propane pH 8.3, 100 mM KCl, 15 mM CaCl2, 0.1% (v/v) Triton X-100, 1 mM DTT, 20% (v/v) glycerol, 37 C 20 min; 1% agarose gel in 1x TBE. As to conditions: protein: recombinant; tags: N-terminal oligohistidine; chain copies: 4; single-stranded. For orientation: Mobility shift assays separate free from complexed probe on a gel.

As to GAGACAGUAUUUG (ssRNA, 5'-monophosphate) [5'-monophosphorylated LU13], the dissociation constant Kd stood at 56 nM.
